Source: article PMC9132103 (Science (New York, N.Y.), 2021)

What was measured:
[1] = molecular target: the molecule itself; test: cryo-EM structure
[2] = molecular target: T1, IL-10Rα ECD, from Expi-293 cells (for structural studies) (human, UniProt Q13651 20-235); test: SEC
T1 sequence (looked up): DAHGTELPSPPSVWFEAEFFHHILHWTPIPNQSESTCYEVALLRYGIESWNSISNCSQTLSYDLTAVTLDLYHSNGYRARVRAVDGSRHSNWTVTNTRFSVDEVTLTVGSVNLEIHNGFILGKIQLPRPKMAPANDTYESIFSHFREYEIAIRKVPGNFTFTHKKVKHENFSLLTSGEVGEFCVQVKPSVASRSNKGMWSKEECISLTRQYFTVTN

B1: Affinity matured IL-10 (super-10, clone 5.1), soluble (ligand, UniProt P22301 19-178, looked up)
chain: SPGQGTQSENSCTHFPGYLPNMLRDLRDAFSRVKTFFQMKDQLDNLLLKESLLEDFKGYLGCQALSEMIQFYLEEVMPQAENQDPDIKAHVQSLGENLKDLRLWLRRCHRFLPCENKSKAVEQVKNAFNKLQEKGIYKAMSEFDIFINYIEAYMTMKIRN
binding result [1]: binds
binding result [2]: binds
